Literature values, collected in paper PMC7054563.

Molecular target: Glu150 (UniProt position 150, LMANVELIAPL)

Multidrug transporter MdfA, triple mutant E26T/D34M/A150E (Escherichia coli; E26T;D34M;A150E)
pKa: 6.5
